Laboratory results: US20230257726A1

Molecular target: SARS-CoV-2 spike protein on spike pseudotyped lentivirus particles or authentic SARS-CoV-2 (SARS-CoV-2) (UniProt P0DTC2)
Assay: cell-based or functional assay

Wild type ACE2(614)-Fc (Fc fusion)
IC50 (µg/ml), pseudovirus: 0.43 µg/mL
